Test results reported in patent US7558625B2, “Combined micro-channel generation and iontophoresis for transdermal delivery of pharmaceutical agents” (TransPharma Medical Ltd., priority 2004, dated 2009).

Assay: Transdermal delivery of hGH by ViaDerm and iontophoresis in rats, high/low hGH dose vs SC
Assay type: in vivo
Set-up: hGH plasma levels: unit not given here
Details: for hGH plasma levels: Avg.
Procedure: In the present experiment a power supply (parallel connection instead of serial) was used in order to improve the power supply.
Human GH solution was prepared from a 12 mg Genotropin vial (Genotropin®, Pharmacia and Upjohn). The levels of hGH in serum were analyzed using Elisa kit (DSL Inc. Webster Tex., USA). HPLC was used to quantitate SC solution.
ViaDerm operating parameters: Burst length—700 μsec; Voltage—330V; Number of bursts—2; 2 applications on the same skin area (150 micro-channels/cm^2); Two application sites (total area 2.8 cm^2); Without current limitation; 80 μm diameter electrode of the electrode arrays.
Iontophoresis application parameters: Current density 0.64 mA/cm^2 (total 1.8 mA). Current elevation time (from 0-max) 20 seconds. Current application time 8 hours.

[1] = ViaDerm + Iontophoresis off 15 mg
[2] = ViaDerm + Iontophoresis on 1.5 mg
[3] = ViaDerm + Iontophoresis on 15 mg

For “hGH: human growth hormone (Genotropin, Pharmacia and Upjohn)”, which hGH plasma levels (1.5 mg hGH, Iontoph. on, +VD, 0.0 hr) is on record?
The hGH plasma levels was 0.1.

What about the hGH plasma levels (1.5 mg hGH, Iontoph. on, +VD, 1.0 hr) of the same substance?
The hGH plasma levels was 225.1.

What about the hGH plasma levels (1.5 mg hGH, Iontoph. on, +VD, 2.0 hr) of the same substance?
Its hGH plasma levels is 346.3.

What about the hGH plasma levels (1.5 mg hGH, Iontoph. on, +VD, 3.0 hr) of the same substance?
The hGH plasma levels was 617.3.

And the hGH plasma levels (1.5 mg hGH, Iontoph. on, +VD, 4.0 hr)?
Its hGH plasma levels is 444.5.

And the hGH plasma levels (1.5 mg hGH, Iontoph. on, +VD, 6.0 hr)?
The hGH plasma levels was 184.3.

And the hGH plasma levels (1.5 mg hGH, Iontoph. on, +VD, 8.0 hr)?
Its hGH plasma levels is 111.3.

What about the hGH plasma levels (15 mg hGH, Iontoph. off, +VD, 0.0 hr) of the same substance?
Its hGH plasma levels is 0.1.

What about the hGH plasma levels (15 mg hGH, Iontoph. off, +VD, 1.0 hr) of the same substance?
The hGH plasma levels was 89.7.

What about the hGH plasma levels (15 mg hGH, Iontoph. off, +VD, 2.0 hr) of the same substance?
The hGH plasma levels was 178.7.

What about the hGH plasma levels (15 mg hGH, Iontoph. off, +VD, 3.0 hr) of the same substance?
Its hGH plasma levels is 283.7.

What about the hGH plasma levels (15 mg hGH, Iontoph. off, +VD, 4.0 hr) of the same substance?
Its hGH plasma levels is 389.4.

And the hGH plasma levels (15 mg hGH, Iontoph. off, +VD, 6.0 hr)?
The hGH plasma levels was 573.1.

And the hGH plasma levels (15 mg hGH, Iontoph. off, +VD, 8.0 hr)?
Its hGH plasma levels is 873.4.

What about the hGH plasma levels (15 mg hGH, Iontoph. on, +VD, 0.0 hr) of the same substance?
The hGH plasma levels was 0.0.

What about the hGH plasma levels (15 mg hGH, Iontoph. on, +VD, 1.0 hr) of the same substance?
Its hGH plasma levels is 504.8.

And the hGH plasma levels (15 mg hGH, Iontoph. on, +VD, 2.0 hr)?
Its hGH plasma levels is 958.5.

What about the hGH plasma levels (15 mg hGH, Iontoph. on, +VD, 3.0 hr) of the same substance?
The hGH plasma levels was 2011.6.

And the hGH plasma levels (15 mg hGH, Iontoph. on, +VD, 4.0 hr)?
The hGH plasma levels was 2204.9.

And the hGH plasma levels (15 mg hGH, Iontoph. on, +VD, 6.0 hr)?
Its hGH plasma levels is 1802.0.

What about the hGH plasma levels (15 mg hGH, Iontoph. on, +VD, 8.0 hr) of the same substance?
Its hGH plasma levels is 1244.1.

What about the hGH plasma levels (15 mg hGH, Iontoph. on, intact, 0.0 hr) of the same substance?
Its hGH plasma levels is 0.1.

And the hGH plasma levels (15 mg hGH, Iontoph. on, intact, 1.0 hr)?
The hGH plasma levels was 1.9.

What about the hGH plasma levels (15 mg hGH, Iontoph. on, intact, 2.0 hr) of the same substance?
The hGH plasma levels was 7.2.

And the hGH plasma levels (15 mg hGH, Iontoph. on, intact, 3.0 hr)?
The hGH plasma levels was 8.3.

And the hGH plasma levels (15 mg hGH, Iontoph. on, intact, 4.0 hr)?
Its hGH plasma levels is 9.2.

And the hGH plasma levels (15 mg hGH, Iontoph. on, intact, 6.0 hr)?
Its hGH plasma levels is 5.4.

What about the hGH plasma levels (15 mg hGH, Iontoph. on, intact, 8.0 hr) of the same substance?
The hGH plasma levels was 4.7.

What about the AUC (Intact + Iontophoresis 15 mg) of the same substance?
The AUC was 47 ng·h/mL.

What about the Bioavailability (Intact + Iontophoresis 15 mg) of the same substance?
The Bioavailability was 0.05%.

What about the hGH plasma levels (S.C. 150 ug/0.2 ml hGH, 0.0 hr) of the same substance?
The hGH plasma levels was 0.1.

And the hGH plasma levels (S.C. 150 ug/0.2 ml hGH, 1.0 hr)?
The hGH plasma levels was 153.0.

And the hGH plasma levels (S.C. 150 ug/0.2 ml hGH, 2.0 hr)?
The hGH plasma levels was 156.8.

What about the hGH plasma levels (S.C. 150 ug/0.2 ml hGH, 3.0 hr) of the same substance?
Its hGH plasma levels is 127.8.

And the hGH plasma levels (S.C. 150 ug/0.2 ml hGH, 4.0 hr)?
Its hGH plasma levels is 120.1.

And the hGH plasma levels (S.C. 150 ug/0.2 ml hGH, 6.0 hr)?
The hGH plasma levels was 75.3.

What about the hGH plasma levels (S.C. 150 ug/0.2 ml hGH, 8.0 hr) of the same substance?
The hGH plasma levels was 43.4.

And the AUC (SC 150 ug)?
Its AUC is 812 ng·h/mL.

What about the Bioavailability (SC 150 ug (reference)) of the same substance?
Its Bioavailability is 100%.

And the AUC [1]?
The AUC was 3156 ng·h/mL.

What about the Bioavailability [1] of the same substance?
The Bioavailability was 3.9%.

What about the AUC [2] of the same substance?
The AUC was 2336 ng·h/mL.

What about the Bioavailability [2] of the same substance?
The Bioavailability was 28.8%.

And the AUC [3]?
Its AUC is 11630 ng·h/mL.

And the Bioavailability [3]?
Its Bioavailability is 14.3%.

And the “clinical observations at the site of the patch application” value (abdomen, current on 0.64 mA/cm^2 for 8 hours)?
Its value is “Black burning marks (3rd degree burns)”.

And the “clinical observations at the site of the patch application” value (animals in which the power supply was off)?
The value was “No burn marks”.

And the “hGH delivery by iontophoresis alone” value (intact skin, 15 mg hGH)?
The value was “does not cause hGH delivery”.
